According to patent US11504441B2, “Radiolabeled compounds targeting the prostate-specific membrane antigen” (PROVINCIAL HEALTH SERVICES AUTHORITY, priority 2019, dated 2022):

Assays:
[1] = tested on: PSMA-expressing LNCaP cancer xenografts; conditions: mouse, in vivo
[2] = in vivo; conditions: male, NODSCID 1L2RγKO, mouse, iv, total radioactivity; for excreta dose per gram or mL at 1 h: Urine uptake

SMILES	Blood: Salivary ratio [1]	Tumor: Blood ratio [1]	Tumor: Kidney ratio [1]	Tumor: Muscle ratio [1]	Tumor: Salivary ratio [1]	tissue uptake at 1 h ([2]; Adrenal glands uptake) [%ID/g]	tissue uptake at 1 h ([2]; Blood uptake) [%ID/g]	tissue uptake at 1 h ([2]; Bone uptake) [%ID/g]	tissue uptake at 1 h ([2]; Brain uptake) [%ID/g]	tissue uptake at 1 h ([2]; Fat uptake) [%ID/g]	tissue uptake at 1 h ([2]; Heart uptake) [%ID/g]	tissue uptake at 1 h ([2]; Intestine uptake) [%ID/g]	tissue uptake at 1 h ([2]; Kidneys uptake) [%ID/g]	tissue uptake at 1 h ([2]; Lacrimal uptake) [%ID/g]	tissue uptake at 1 h ([2]; Liver uptake) [%ID/g]	tissue uptake at 1 h ([2]; Lungs uptake) [%ID/g]	tissue uptake at 1 h ([2]; Muscle uptake) [%ID/g]	tissue uptake at 1 h ([2]; Pancreas uptake) [%ID/g]	tissue uptake at 1 h ([2]; Salivary uptake) [%ID/g]	tissue uptake at 1 h ([2]; Seminal uptake) [%ID/g]	further results
O=C(O)C[C@H](NC(=O)N[C@@H](CCCCNC(=O)[C@H](Cc1c2ccccc2cc2ccccc12)NC(=O)[C@H]1CC[C@H](CNC(=O)CN2CCN(CC(=O)O)CCN(CC(=O)O)CCN(CC(=O)O)CC2)CC1)C(=O)O)C(=O)O [68Ga-HTK03161, metal not drawn]	5.08 ± 0.62	11.4 ± 1.73	3.03 ± 0.84	89.4 ± 36.1	57.2 ± 7.11	0.41 ± 0.07	1.13 ± 0.19	0.11 ± 0.02	0.02	0.15 ± 0.04	0.32 ± 0.05	0.31 ± 0.09	4.41 ± 1.26	0.12 ± 0.06	0.28 ± 0.05	0.75 ± 0.13	0.15 ± 0.04	0.18 ± 0.03	0.23 ± 0.05	6.22 ± 12.2	tissue uptake at 1 h ([2]; Spleen uptake): 0.27 ± 0.06 %ID/g; tissue uptake at 1 h ([2]; Stomach uptake): 0.1 ± 0.04 %ID/g; tissue uptake at 1 h ([2]; Tail uptake): 0.55 ± 0.1 %ID/g; tissue uptake at 1 h ([2]; Testes uptake): 0.54 ± 0.51 %ID/g; tissue uptake at 1 h ([2]; Thyroid uptake): 0.29 ± 0.05 %ID/g; tissue uptake at 1 h ([2]; Tumor uptake): 12.7 ± 1.91 %ID/g; excreta dose per gram or mL at 1 h [2]: 363 ± 155 %ID/g
O=C(O)CCC[C@H](NC(=O)N[C@@H](CCCCNC(=O)[C@H](Cc1ccc2ccccc2c1)NC(=O)[C@H]1CC[C@H](CNC(=O)CN2CCN(CC(=O)O)CCN(CC(=O)O)CCN(CC(=O)O)CC2)CC1)C(=O)O)C(=O)O [68Ga-HTK03169, metal not drawn]	4.39 ± 2.06	6.09 ± 2.24	1.47 ± 0.16	47.1 ± 12.3	23.2 ± 1.91	0.24 ± 0.08	0.63 ± 0.36	0.08 ± 0.03	0.02 ± 0.01	0.09 ± 0.04	0.14 ± 0.07	0.23 ± 0.16	2.18 ± 0.48	0.13 ± 0.06	0.21 ± 0.16	0.38 ± 0.17	0.08 ± 0.05	0.11 ± 0.05	0.14 ± 0.03	3.83 ± 2.93	tissue uptake at 1 h ([2]; Spleen uptake): 0.13 ± 0.06 %ID/g; tissue uptake at 1 h ([2]; Stomach uptake): 0.09 ± 0.11 %ID/g; tissue uptake at 1 h ([2]; Tail uptake): 0.48 ± 0.2 %ID/g; tissue uptake at 1 h ([2]; Testes uptake): 0.13 ± 0.07 %ID/g; tissue uptake at 1 h ([2]; Thyroid uptake): 0.16 ± 0.07 %ID/g; tissue uptake at 1 h ([2]; Tumor uptake): 3.19 ± 0.7 %ID/g; excreta dose per gram or mL at 1 h [2]: 421 ± 187 %ID/g
O=C(O)CSC[C@H](NC(=O)N[C@@H](CCCCNC(=O)[C@H](Cc1c2ccccc2cc2ccccc12)NC(=O)[C@H]1CC[C@H](CNC(=O)CN2CCN(CC(=O)O)CCN(CC(=O)O)CCN(CC(=O)O)CC2)CC1)C(=O)O)C(=O)O [68Ga-HTK03177, metal not drawn]	3.14 ± 0.19	36.1 ± 12.5	3.25 ± 1.16	220 ± 135	112 ± 33.1	0.46 ± 0.17	0.7 ± 0.06	0.1 ± 0.03	0.02	0.09 ± 0.04	0.21 ± 0.01	0.21 ± 0.02	7.76 ± 1	0.12 ± 0.06	0.33 ± 0.2	0.61 ± 0.08	0.18 ± 0.18	0.14 ± 0.01	0.22 ± 0.02	0.28 ± 0.38	tissue uptake at 1 h ([2]; Spleen uptake): 0.42 ± 0.15 %ID/g; tissue uptake at 1 h ([2]; Stomach uptake): 0.15 ± 0.09 %ID/g; tissue uptake at 1 h ([2]; Tail uptake): 0.74 ± 0.12 %ID/g; tissue uptake at 1 h ([2]; Testes uptake): 0.25 ± 0.07 %ID/g; tissue uptake at 1 h ([2]; Thyroid uptake): 0.23 ± 0.01 %ID/g; tissue uptake at 1 h ([2]; Tumor uptake): 24.7 ± 6.85 %ID/g; excreta dose per gram or mL at 1 h [2]: 400 ± 262 %ID/g
O=C(O)COC[C@H](NC(=O)N[C@@H](CCCCNC(=O)[C@H](Cc1c2ccccc2cc2ccccc12)NC(=O)[C@H]1CC[C@H](CNC(=O)CN2CCN(CC(=O)O)CCN(CC(=O)O)CCN(CC(=O)O)CC2)CC1)C(=O)O)C(=O)O [68Ga-HTK03187, metal not drawn]	4.27 ± 0.74	32.2 ± 8.53	7.67 ± 2.10	249 ± 61.2	133 ± 14.0	0.26 ± 0.06	0.67 ± 0.1	0.13 ± 0.03	0.02	0.07 ± 0.02	0.19 ± 0.04	0.23 ± 0.05	2.83 ± 0.45	0.09 ± 0.03	0.21 ± 0.05	0.52 ± 0.09	0.09 ± 0.01	0.12 ± 0.02	0.16 ± 0.02	0.65 ± 0.8	tissue uptake at 1 h ([2]; Spleen uptake): 0.17 ± 0.02 %ID/g; tissue uptake at 1 h ([2]; Stomach uptake): 0.08 ± 0.05 %ID/g; tissue uptake at 1 h ([2]; Tail uptake): 0.46 ± 0.1 %ID/g; tissue uptake at 1 h ([2]; Testes uptake): 0.15 ± 0.03 %ID/g; tissue uptake at 1 h ([2]; Thyroid uptake): 0.18 ± 0.02 %ID/g; tissue uptake at 1 h ([2]; Tumor uptake): 21.1 ± 3.62 %ID/g; excreta dose per gram or mL at 1 h [2]: 444 ± 192 %ID/g
O=C(O)CN1CCN(CC(=O)O)CCN(CC(=O)NC[C@H]2CC[C@H](C(=O)N[C@@H](Cc3c4ccccc4cc4ccccc34)C(=O)NCCCC[C@H](NC(=O)N[C@@H](C[C@@H](F)C(=O)O)C(=O)O)C(=O)O)CC2)CCN(CC(=O)O)CC1 [68Ga-HTK04033, metal not drawn]	4.38 ± 0.57	31.7 ± 5.00	5.64 ± 1.37	221 ± 53.4	138 ± 21.1	0.16 ± 0.03	0.59 ± 0.12	0.08 ± 0.01	0.02	0.1 ± 0.03	0.18 ± 0.06	0.2 ± 0.04	3.31 ± 0.34	0.04 ± 0.03	0.29 ± 0.09	0.5 ± 0.05	0.09 ± 0.04	0.15 ± 0.08	0.13 ± 0.02	0.1 ± 0.04	tissue uptake at 1 h ([2]; Spleen uptake): 0.19 ± 0.03 %ID/g; tissue uptake at 1 h ([2]; Stomach uptake): 0.07 ± 0.03 %ID/g; tissue uptake at 1 h ([2]; Tail uptake): 0.66 ± 0.5 %ID/g; tissue uptake at 1 h ([2]; Testes uptake): 0.17 ± 0.05 %ID/g; tissue uptake at 1 h ([2]; Thyroid uptake): 0.18 ± 0.03 %ID/g; tissue uptake at 1 h ([2]; Tumor uptake): 18.5 ± 4.05 %ID/g; excreta dose per gram or mL at 1 h [2]: 440 ± 211 %ID/g
O=C(O)CCC[C@H](NC(=O)N[C@@H](CCCCNC(=O)[C@H](Cc1c2ccccc2cc2ccccc12)NC(=O)Cc1ccc(CNC(=O)CN2CCN(CC(=O)O)CCN(CC(=O)O)CCN(CC(=O)O)CC2)cc1)C(=O)O)C(=O)O [68Ga-HTK04036, metal not drawn]	3.68 ± 0.41	21.0 ± 8.58	3.02 ± 1.44	139 ± 62.4	75.1 ± 28.2	0.3 ± 0.16	0.69 ± 0.35	0.1 ± 0.03	0.02 ± 0.01	0.09 ± 0.05	0.22 ± 0.12	0.41 ± 0.23	5.82 ± 5	0.06 ± 0.03	0.48 ± 0.67	0.55 ± 0.26	0.11 ± 0.06	0.13 ± 0.07	0.18 ± 0.08	2.08 ± 3.09	tissue uptake at 1 h ([2]; Spleen uptake): 0.27 ± 0.13 %ID/g; tissue uptake at 1 h ([2]; Stomach uptake): 0.12 ± 0.11 %ID/g; tissue uptake at 1 h ([2]; Tail uptake): 0.42 ± 0.18 %ID/g; tissue uptake at 1 h ([2]; Testes uptake): 0.25 ± 0.14 %ID/g; tissue uptake at 1 h ([2]; Thyroid uptake): 0.22 ± 0.12 %ID/g; tissue uptake at 1 h ([2]; Tumor uptake): 12.1 ± 2.15 %ID/g; excreta dose per gram or mL at 1 h [2]: 422 ± 163 %ID/g
O=C(O)CCC[C@H](NC(=O)N[C@@H](CCCCNC(=O)[C@H](Cc1c2ccccc2cc2ccccc12)NC(=O)Cc1cccc(CNC(=O)CN2CCN(CC(=O)O)CCN(CC(=O)O)CCN(CC(=O)O)CC2)c1)C(=O)O)C(=O)O [68Ga-HTK04037, metal not drawn]	3.55 ± 0.46	26.3 ± 10.5	3.02 ± 1.22	165 ± 52.9	92.2 ± 34.5	0.19 ± 0.03	0.51 ± 0.12	0.07 ± 0.01	0.02	0.06 ± 0.01	0.15 ± 0.03	0.28 ± 0.03	4.47 ± 0.9	0.07 ± 0.04	0.2 ± 0.03	0.46 ± 0.09	0.08 ± 0.03	0.11 ± 0.01	0.14 ± 0.03	8.45 ± 10	tissue uptake at 1 h ([2]; Spleen uptake): 0.24 ± 0.05 %ID/g; tissue uptake at 1 h ([2]; Stomach uptake): 0.12 ± 0.05 %ID/g; tissue uptake at 1 h ([2]; Tail uptake): 0.41 ± 0.16 %ID/g; tissue uptake at 1 h ([2]; Testes uptake): 0.18 ± 0.04 %ID/g; tissue uptake at 1 h ([2]; Thyroid uptake): 0.16 ± 0.03 %ID/g; tissue uptake at 1 h ([2]; Tumor uptake): 13.1 ± 4.69 %ID/g; excreta dose per gram or mL at 1 h [2]: 396 ± 114 %ID/g
